Consider four molecules from article PMC5958125, “IgG-single-chain TRAIL fusion proteins for tumour therapy” (Scientific Reports, 2018).

Test in all cases: ELISA; TRAILR1-Fc or TRAILR2-Fc coated (200 ng/well in 0.1 M sodium carbonate buffer, pH 9.5), samples in 3% skim milk/PBS titrated 1:3 from 150 nM, 2 h room temperature, concentrations normalised to one scTRAIL unit, detected with anti-FLAG M2-HRP
In assay [1] the target is TRAILR2-Fc (UniProt O14763).
The target of a further assay is T1, TRAILR1-Fc (UniProt O00220 24-239).
T1 construct: TRAIL receptor 1 (TRAILR1); Probably the extracellular domain fused to an Fc
T1 sequence (O00220 24-239): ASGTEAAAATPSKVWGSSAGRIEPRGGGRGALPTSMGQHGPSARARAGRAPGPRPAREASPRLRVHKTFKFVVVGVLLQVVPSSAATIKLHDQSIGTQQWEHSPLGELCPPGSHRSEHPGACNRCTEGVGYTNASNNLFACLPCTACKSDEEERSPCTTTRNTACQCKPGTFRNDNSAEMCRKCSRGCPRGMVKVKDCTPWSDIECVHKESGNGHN
To be noted: both partners purified.

Assay [2] has as its target T2, TRAILR2-Fc (UniProt O14763 56-210).
T2 construct: TRAIL receptor 2 (TRAILR2); Probably the extracellular domain fused to an Fc
Conditions: both partners purified.

Take “HC-scTRAIL (fusion of scTRAIL to hu225 IgG heavy chains)”: in the assay with TRAILR2-Fc [1], the EC50 was found to be 0.8 nM. “LC/HC-scTRAIL (fusion of scTRAIL to both hu225 IgG chains)” displayed an EC50 with TRAILR2-Fc [1] of 3.4 nM. The same measure, in the same setting: the result for “LC-scTRAIL (fusion of scTRAIL to hu225 IgG light chains)” reads 0.9 nM.

B1: Fc-scTRAIL-FAVSGAA (Fc fusion)
chain: AAHITGTRGRSNTLSSPNSKNEKALGRKINSWESSRSGHSFLSNLHLRNGELVIHEKGFYYIYSQTYFRFQEEIKENTKNDKQMVQYIYKYTSYPDPILLMKSARNSCWSKDAEYGLYSIYQGGIFELKENDRIFVSVTNEHLIDMDHEASFFGAFAVSGAAHITGTRGRSNTLSSPNSKNEKALGRKINSWESSRSGHSFLSNLHLRNGELVIHEKGFYYIYSQTYFRFQEEIKENTKNDKQMVQYIYKYTSYPDPILLMKSARNSCWSKDAEYGLYSIYQGGIFELKENDRIFVSVTNEHLIDMDHEASFFGAFAVSGAAHITGTRGRSNTLSSPNSKNEKALGRKINSWESSRSGHSFLSNLHLRNGELVIHEKGFYYIYSQTYFRFQEEIKENTKNDKQMVQYIYKYTSYPDPILLMKSARNSCWSKDAEYGLYSIYQGGIFELKENDRIFVSVTNEHLIDMDHEASFFGAFAVS
For the molecule B1, the EC50 in the assay with TRAILR1-Fc came to 7.3 nM; in the assay with TRAILR2-Fc [2], 1.1 nM.
